# Data taken from publication PMC11574045, “A cofactor-induced repressive type of transcription factor condensation can be induced by synthetic peptides to suppress tumorigenesis” (The EMBO Journal, 2024).
# B1: TRIB3 (protein, UniProt Q96RU7 1-358, looked up)
# Tribbles homolog 3: MRATPLAAPAGSLSRKKRLELDDNLDTERPVQKRARSGPQPRLPPCLLPLSPPTAPDRATAVATASRLGPYVLLEPEEGGRAYQALHCPTGTEYTCKVYPVQEALAVLEPYARLPPHKHVARPTEVLAGTQLLYAFFTRTHGDMHSLVRSRHRIPEPEAAVLFRQMATALAHCHQHGLVLRDLKLCRFVFADRERKKLVLENLEDSCVLTGPDDSLWDKHACPAYVGPEILSSRASYSGKAADVWSLGVALFTMLAGHYPFQDSEPVLLFGKIRRGAYALPAGLSAPARCLVRCLLRREPAERLTATGILLHPWLRQDPMPLAPTRSHLWEAAQVVPDGLGLDEAREEEGDREVVLYG
# B2: TRERF1 (protein, UniProt Q96PN7 1-1200, looked up)
# Transcriptional-regulating …: MGDQQLYKTNHVAHGSENLFYQQPPLGVHSGLNHNYGNAVTGGGMDAPQASPISPHFPQDTRDGLGLPVGSKNLGQMDTSRQGGWGSHAGPGNHVQLRGNLANSNMMWGAPAQAEPTDGYQYTYSQASEIRTQKLTSGVLHKLDSFTQVFANQNLRIQVNNMAQVLHTQSAVMDGAPDSALRQLLSQKPMEPPAPAIPSRYQQVPQQPHPGFTGGLSKPALQVGQHPTQGHLYYDYQQPLAQVPVQGGQPLQAPQMLSQHMQQMQQHQYYPPQQQQQAGQQRISMQEIQTQPQQIRPSQPQPPPQQQQPQQLQLQQRQGSMQIPQYYQPQPMMQHLQEQQQQQMHLQPPSYHRDPHQYTPEQAHTVQLIPLGSMSQYYYQEPQQPYSHPLYQQSHLSQHQQREDSQLKTYSSDRQAQAMLSSHGDLGPPDTGMGDPASSDLTRVSSTLPHRPLLSPSGIHLNNMGPQHQQLSPSAMWPQMHLPDGRAQPGSPESSGQPKGAFGEQFDAKNKLTCSICLKEFKNLPALNGHMRSHGGMRASPNLKQEEGEKVLPPQPQPPLPPPPPPPPPPQLPPEAESLTPMVMPVSVPVKLLPPKPSSQGFTNSTVAAPSARDKPASSMSDDEMPVLEIPRKHQPSVPKAEEPLKTVQEKKKFRHRPEPLFIPPPPSYNPNPAASYSGATLYQSQLRSPRVLGDHLLLDPTHELPPYTPPPMLSPVRQGSGLFSNVLISGHGPGAHPQLPLTPLTPTPRVLLCRSNSIDGSNVTVTPGPGEQTVDVEPRINIGLRFQAEIPELQDISALAQDTHKATLVWKPWPELENHDLQQRVENLLNLCCSSALPGGGTNSEFALHSLFEAKGDVMVALEMLLLRKPVRLKCHPLANYHYAGSDKWTSLERKLFNKALATYSKDFIFVQKMVKSKTVAQCVEYYYTWKKIMRLGRKHRTRLAEIIDDCVTSEEEEELEEEEEEDPEEDRKSTKEEESEVPKSPEPPPVPVLAPTEGPPLQALGQPSGSFICEMPNCGAVFSSRQALNGHARIHGGTNQVTKARGAIPSGKQKPGGTQSGYCSVKSSPSHSTTSGETDPTTIFPCKECGKVFFKIKSRNAHMKTHRQQEEQQRQKAQKAAFAAEMAATIERTTGPVGAPGLLPLDQLSLIKPIKDVDILDDDVVQQLGGVMEEAEVVDTDLLLDDQDSVLLQGDAEL
# B3: TOB1 (protein, UniProt P50616 1-345, looked up)
# Protein Tob1: MQLEIQVALNFIISYLYNKLPRRRVNIFGEELERLLKKKYEGHWYPEKPYKGSGFRCIHIGEKVDPVIEQASKESGLDIDDVRGNLPQDLSVWIDPFEVSYQIGEKGPVKVLYVDDNNENGCELDKEIKNSFNPEAQVFMPISDPASSVSSSPSPPFGHSAAVSPTFMPRSTQPLTFTTATFAATKFGSTKMKNSGRSNKVARTSPINLGLNVNDLLKQKAISSSMHSLYGLGLGSQQQPQQQQQPAQPPPPPPPPQQQQQQKTSALSPNAKEFIFPNMQGQGSSTNGMFPGDSPLNLSPLQYSNAFDVFAAYGGLNEKSFVDGLNFSLNNMQYSNQQFQPVMAN
# B4: TLE2 (protein, UniProt Q04725 1-743, looked up)
# Transducin-like enhancer …: MYPQGRHPTPLQSGQPFKFSILEICDRIKEEFQFLQAQYHSLKLECEKLASEKTEMQRHYVMYYEMSYGLNIEMHKQAEIVKRLSGICAQIIPFLTQEHQQQVLQAVERAKQVTVGELNSLIGQQLQPLSHHAPPVPLTPRPAGLVGGSATGLLALSGALAAQAQLAAAVKEDRAGVEAEGSRVERAPSRSASPSPPESLVEEERPSGPGGGGKQRADEKEPSGPYESDEDKSDYNLVVDEDQPSEPPSPATTPCGKVPICIPARRDLVDSPASLASSLGSPLPRAKELILNDLPASTPASKSCDSSPPQDASTPGPSSASHLCQLAAKPAPSTDSVALRSPLTLSSPFTTSFSLGSHSTLNGDLSVPSSYVSLHLSPQVSSSVVYGRSPVMAFESHPHLRGSSVSSSLPSIPGGKPAYSFHVSADGQMQPVPFPSDALVGAGIPRHARQLHTLAHGEVVCAVTISGSTQHVYTGGKGCVKVWDVGQPGAKTPVAQLDCLNRDNYIRSCKLLPDGRSLIVGGEASTLSIWDLAAPTPRIKAELTSSAPACYALAVSPDAKVCFSCCSDGNIVVWDLQNQTMVRQFQGHTDGASCIDISDYGTRLWTGGLDNTVRCWDLREGRQLQQHDFSSQIFSLGHCPNQDWLAVGMESSNVEILHVRKPEKYQLHLHESCVLSLKFASCGRWFVSTGKDNLLNAWRTPYGASIFQSKESSSVLSCDISRNNKYIVTGSGDKKATVYEVVY
# B5: TOX (protein, UniProt O94900 1-526, looked up)
# Thymocyte …: MDVRFYPPPAQPAAAPDAPCLGPSPCLDPYYCNKFDGENMYMSMTEPSQDYVPASQSYPGPSLESEDFNIPPITPPSLPDHSLVHLNEVESGYHSLCHPMNHNGLLPFHPQNMDLPEITVSNMLGQDGTLLSNSISVMPDIRNPEGTQYSSHPQMAAMRPRGQPADIRQQPGMMPHGQLTTINQSQLSAQLGLNMGGSNVPHNSPSPPGSKSATPSPSSSVHEDEGDDTSKINGGEKRPASDMGKKPKTPKKKKKKDPNEPQKPVSAYALFFRDTQAAIKGQNPNATFGEVSKIVASMWDGLGEEQKQVYKKKTEAAKKEYLKQLAAYRASLVSKSYSEPVDVKTSQPPQLINSKPSVFHGPSQAHSALYLSSHYHQQPGMNPHLTAMHPSLPRNIAPKPNNQMPVTVSIANMAVSPPPPLQISPPLHQHLNMQQHQPLTMQQPLGNQLPMQVQSALHSPTMQQGFTLQPDYQTIINPTSTAAQVVTQAMEYVRSGCRNPPPQPVDWNNDYCSSGGMQRDKALYLT
# B6: BNC2 (protein, UniProt Q6ZN30 1-1099, looked up)
# Zinc finger protein …: MAHLGPTPPPHSLNYKSEDRLSEQDWPAYFKVPCCGVDTSQIESEEAEVDVRERETQRDREPKRARDLTLRDSCTDNSMQFGTRTTTAEPGFMGTWQNADTNLLFRMSQQAIRCTLVNCTCECFQPGKINLRTCDQCKHGWVAHALDKLSTQHLYHPTQVEIVQSNVVFDISSLMLYGTQAVPVRLKILLDRLFSVLKQEEVLHILHGLGWTLRDYVRGYILQDAAGKVLDRWAIMSREEEIITLQQFLRFGETKSIVELMAIQEKEGQAVAVPSSKTDSDIRTFIESNNRTRSPSLLAHLENSNPSSIHHFENIPNSLAFLLPFQYINPVSAPLLGLPPNGLLLEQPGLRLREPSLSTQNEYNESSESEVSPTPYKNDQTPNRNALTSITNVEPKTEPACVSPIQNSAPVSDLTKTEHPKSSFRIHRMRRMGSASRKGRVFCNACGKTFYDKGTLKIHYNAVHLKIKHRCTIEGCNMVFSSLRSRNRHSANPNPRLHMPMLRNNRDKDLIRATSGAATPVIASTKSNLALTSPGRPPMGFTTPPLDPVLQNPLPSQLVFSGLKTVQPVPPFYRSLLTPGEMVSPPTSLPTSPIIPTSGTIEQHPPPPSEPVVPAVMMATHEPSADLAPKKKPRKSSMPVKIEKEIIDTADEFDDEDDDPNDGGAVVNDMSHDNHCHSQEEMSPGMSVKDFSKHNRTRCISRTEIRRADSMTSEDQEPERDYENESESSEPKLGEESMEGDEHIHSEVSEKVLMNSERPDENHSEPSHQDVIKVKEEFTDPTYDMFYMSQYGLYNGGGASMAALHESFTSSLNYGSPQKFSPEGDLCSSPDPKICYVCKKSFKSSYSVKLHYRNVHLKEMHVCTVAGCNAAFPSRRSRDRHSANINLHRKLLTKELDDMGLDSSQPSLSKDLRDEFLVKIYGAQHPMGLDVREDASSPAGTEDSHLNGYGRGMAEDYMVLDLSTTSSLQSSSSIHSSRESDAGSDEGILLDDIDGASDSGESAHKAEAPALPGSLGAEVSGSLMFSSLSGSNGGIMCNICHKMYSNKGTLRVHYKTVHLREMHKCKVPGCNMMFSSVRSRNRHSQNPNLHKNIPFTSVD
# B7: TRIM32 (protein, UniProt Q8CH72 1-655, looked up)
# E3 ubiquitin-protein ligase …: MAAAAAASHLNLDALREVLECPICMESFTEEQLRPKLLHCGHTICRQCLEKLLASSINGVRCPFCSKITRITSLTQLTDNLTVLKIIDTAGLSEAVGLLMCRGCGRRLPRQFCRSCGVVLCEPCREADHQPPGHCTLPVKEAAEERRRDFGEKLTRLRELTGELQRRKAALEGVSRDLQARYKAVLQEYGHEERRIQEELARSRKFFTGSLAEVEKSNSQVVEEQSYLLNIAEVQAVSRCDYFLAKIKQADVALLEETADEEEPELTASLPRELTLQDVELLKVGHVGPLQIGQAVKKPRTVNMEDSWAGEEGAASSASASVTFREMDMSPEEVAPSPRASPAKQRSSEAASGIQQCLFLKKMGAKGSTPGMFNLPVSLYVTSQSEVLVADRGNYRIQVFNRKGFLKEIRRSPSGIDSFVLSFLGADLPNLTPLSVAMNCHGLIGVTDSYDNSLKVYTMDGHCVACHRSQLSKPWGITALPSGQFVVTDVEGGKLWCFTVDRGAGVVKYSCLCSAVRPKFVTCDAEGTVYFTQGLGLNVENRQNEHHLEGGFSIGSVGPDGQLGRQISHFFSENEDFRCIAGMCVDARGDLIVADSSRKEILHFPKGGGYSVLIREGLTCPVGIALTPKGQLLVLDCWDHCVKIYSYHLRRYSTP
# B8: TOX2 (protein, UniProt Q96NM4 1-488, looked up)
# TOX high mobility group box …: MQQTRTEAVAGAFSRCLGFCGMRLGLLLLARHWCIAGVFPQKFDGDSAYVGMSDGNPELLSTSQTYNGQSENNEDYEIPPITPPNLPEPSLLHLGDHEASYHSLCHGLTPNGLLPAYSYQAMDLPAIMVSNMLAQDSHLLSGQLPTIQEMVHSEVAAYDSGRPGPLLGRPAMLASHMSALSQSQLISQMGIRSSIAHSSPSPPGSKSATPSPSSSTQEEESEVHFKISGEKRPSADPGKKAKNPKKKKKKDPNEPQKPVSAYALFFRDTQAAIKGQNPSATFGDVSKIVASMWDSLGEEQKQSSPDQGETKSTQANPPAKMLPPKQPMYAMPGLASFLTPSDLQAFRSGASPASLARTLGSKSLLPGLSASPPPPPSFPLSPTLHQQLSLPPHAQGALLSPPVSMSPAPQPPVLPTPMALQVQLAMSPSPPGPQDFPHISEFPSSSGSCSPGPSNPTSSGDWDSSYPSGECGISTCSLLPRDKSLYLT
# Test system: HEK293FT cells transfected with TF library
# Test: Screening of TF condensates based on fluorescent puncta
# Assay type: cell-based
# Conditions: Figure 1B numerical data; TF library screen, one value per transcriptional factor
# Procedure, shortened: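 Cells were seeded onto plasmid/PEI-loaded wells (plasmid 1.6 μg/ml final) and grown 60 h. Medium with or without glucose followed for 12 h. Fixed, permeabilized cells were stained against Flag or GAL4 tags, and condensate puncta were quantified from 50 random fields per well.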
row,Molecule,Z score of condensed fraction
1,B1,-0.9785
2,B2,-0.901
3,B3,-0.3688
4,B4,0.1994
5,B5,-0.4918
6,B6,-0.9038
7,B7,-0.9694
8,B8,2.501
